Two substances from paper PMC6941110, “Mutation of Aspartate 238 in FAD Synthase Isoform 6 Increases the Specific Activity by Weakening the FAD Binding” (International Journal of Molecular Sciences, 2019) can be followed below.

What all share (experiment): purified protein
What all share (assay type): biochemical, Homo sapiens

The subject of data set [1] is T1, Cc1cc2nc3c(=O)[nH]c(=O)nc-3n(C[C@H](O)[C@H](O)[C@H](O)COP(=O)(O)O)c2cc1C.
T1 construct: 320-residue isoform 6, FADSy domain only, lacks N-terminal FADHy domain; monomer
Conditions: forward reaction, 100 µM ATP, 5 mM MgCl2, 50 mM Tris/HCl pH 7.5, 37 °C.

Data set [2] has as its system T2, Nc1ncnc2c1ncn2[C@@H]1O[C@H](COP(=O)(O)OP(=O)(O)OP(=O)(O)O)[C@@H](O)[C@H]1O.
T2 construct: 320-residue isoform 6, FADSy domain only, lacks N-terminal FADHy domain; monomer
Conditions: forward reaction, 5 mM MgCl2, 50 mM Tris/HCl pH 7.5, 37 °C.

The subject of data set [3] is T3, O=P(O)(O)OP(=O)(O)O.
T3 construct: 320-residue isoform 6, FADSy domain only, lacks N-terminal FADHy domain; monomer
Conditions: reverse reaction, 0.5 µM FAD, 5 mM MgCl2, 50 mM Tris/HCl pH 7.5, 37 °C.

hFADS6 (human FAD synthase isoform 6) (Homo sapiens), sequence (chain, as listed by the source): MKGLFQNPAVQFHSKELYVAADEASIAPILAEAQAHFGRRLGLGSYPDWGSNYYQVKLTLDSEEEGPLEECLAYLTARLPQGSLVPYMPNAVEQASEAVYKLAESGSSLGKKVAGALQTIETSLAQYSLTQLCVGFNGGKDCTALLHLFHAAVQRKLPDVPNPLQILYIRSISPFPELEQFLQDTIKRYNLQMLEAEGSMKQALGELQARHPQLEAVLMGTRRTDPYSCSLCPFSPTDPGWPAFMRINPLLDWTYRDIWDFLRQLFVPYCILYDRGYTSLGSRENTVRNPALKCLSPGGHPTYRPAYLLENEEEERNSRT
hFADS6 (human FAD synthase isoform 6) (Homo sapiens; D505A), sequence (chain, as listed by the source D505A): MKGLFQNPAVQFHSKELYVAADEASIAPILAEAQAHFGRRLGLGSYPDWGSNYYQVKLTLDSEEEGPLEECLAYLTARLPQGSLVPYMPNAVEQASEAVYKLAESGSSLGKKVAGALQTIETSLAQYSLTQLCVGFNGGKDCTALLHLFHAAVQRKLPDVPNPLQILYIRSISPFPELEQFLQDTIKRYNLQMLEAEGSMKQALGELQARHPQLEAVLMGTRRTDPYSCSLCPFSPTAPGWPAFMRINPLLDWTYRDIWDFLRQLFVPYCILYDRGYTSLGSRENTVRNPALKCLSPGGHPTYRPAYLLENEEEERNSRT

“hFADS6 (human FAD synthase isoform 6) (Homo sapiens)”: the Km in data set [1] stood at 0.13 ± 0.01 µM; in data set [2] (2 µM FMN) it was 6.9 ± 0.5 µM; in data set [3], 42 ± 6 µM. In addition, the kcat was 0.047 ± 0.001 s⁻¹ in data set [1] and 0.050 ± 0.001 s⁻¹ in data set [2] (2 µM FMN).
For the substance “hFADS6 (human FAD synthase isoform 6) (Homo sapiens; D505A)”, the Michaelis constant (Km) was 1.3 ± 0.3 µM in data set [1], 44 ± 4 µM in data set [2] (3 µM FMN) and 60 ± 8 µM in data set [3]. The kcat was 0.103 ± 0.007 s⁻¹ in data set [1] and 0.093 ± 0.003 s⁻¹ in data set [2] (3 µM FMN).
